Source: the supplement of paper PMC12764529
± gives the half width of the 95% confidence interval.

Experiments:
[1] = folding stability dG unfold from trypsin proteolysis; higher = more stable
Procedure, shortened: (§1)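 Digests were run with trypsin and chymotrypsin at 11 concentrations in threefold dilutions, plus a no-protease condition, on designed mini-proteins in a PA-tagged cDNA display construct. The mini-proteins were under 80 residues, had no cysteine, and were kept only when AlphaFold2 dimer inter-PAE was above 15. After sequencing, Bayesian fitting of the counts gave K50, from which unfolding free energy was derived against a sequence-predicted unfolded-state K50 and a shared folded-state K50, per protease or combined.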

[2] = folding stability dG unfold from chymotrypsin proteolysis; higher = more stable
Procedure, shortened: as §1

[3] = folding stability dG unfold (combined trypsin and chymotrypsin); higher = more stable
Procedure, shortened: as §1

Sequence | folding stability dG unfold [1] [kcal/mol] | folding stability dG unfold [2] [kcal/mol] | folding stability dG unfold [3] [kcal/mol]
SAGGSATSIEYESPGVVETVSFTREPDGTLTVTVTVREPNGPVLKTLPTTETLPPDAGVTASVPLPSAGGSA [r15_950_JUSTAS] | 0.0919 ± 0.16 | 0.921 ± 0.13 | 0.529 ± 0.18
SAGGSATVEVATEPDGTVTVTTLETDPAEPRGTVTTTTVTVTTEPTPEPFLSSSTTTTTTATAPAPSAGGSA [r15_438_JUSTAS] | 0.138 ± 0.048 | -0.291 ± 0.075 | -0.0573 ± 0.059
SAGGSAVILIPIPPDDPNFWEMIKDFQEEGKPVIIRNPEGEWMVFKPNGPVKPVDSPEQLLEAGITSAGGSA [r15_94_TrROS] | 1.03 ± 0.074 | 0.994 ± 0.16 | 1.04 ± 0.18
SAGGSAVPTVRATFRYPDGLVAELEVPVLPDGTPRVVLRVGGVEREVSLEELARLPPEFELVSVDPSAGGSA [r2_431_TrMRF] | 0.517 ± 0.073 | 0.996 ± 0.087 | 0.826 ± 0.072
SAGGSAVTVVTVELTSPGSTHTITIPASEVEGLSLEEIEARLKALPEVSEITLTRSELPPLNPSLASAGGSA [r2_282_JUSTAS] | 0.788 ± 0.042 | 0.752 ± 0.012 | 0.802 ± 0.046
SAGGSAWEFVKEIAKELQEKHPGYQVNVDVEPQRNPENDRRYIRIWIHVQDKNGEIRRTWEIMIPFSAGGSA [r15_1048_TrROS] | 3.22 ± 0.053 | 3.461 ± 0.018 | 3.44 ± 0.12
SAGGSAWMTLEEFIKEAAKNFPPGREKEIWIRHPGYVFKIDIRVTGPGQVKIKIDKIVPFPDGEPISAGGSA [r15_150_TrROS] | 2.12 ± 0.067 | 2.88 ± 0.046 | 2.55 ± 0.11
SAGGSDKLYIRNPDHTIEIDEVKEPPDGEKYVRIRHEPPDGKEKEHEFPPDELADKFGLPPDNIEISAGGSA [r2_262_TrROS] | 0.32 ± 0.35 | -0.217 ± 0.79 | -0.101 ± 0.56
SAGGSDNKPFRIEPTGVDSVEANPDGMVEIEWRFRLPNGYVLTWRETINPKNGKPSIEPTLVPPGESAGGSA [r2_321_TrROS] | 0.816 ± 0.079 | 0.722 ± 0.18 | 0.902 ± 0.085
SAGGSDSLVTLERVEVTELEEFEEDDRPFLVKRTYTIEKVVTTDPKTGKVTTETTVTSKEEVIPPELNSAGG [r13_810_JUSTAS] | 0.807 ± 0.031 | 0.801 ± 0.18 | 0.874 ± 0.084
SAGGSDVKTYTFVGIDPETGELVETTFRVTPLVPPVPVSVSVSLTLDVDPDGNLHLSLSVSVELGGSAGGSA [r2_326_TrMRF] | 3.21 ± 0.11 | 4.74 ± 0.081 | 4.37 ± 0.12
SAGGSEAEIVSVEFDEETGTISVLVRNSDGSLYRAEIRFERLPDGSLLVTIKVTLPDGKELTFVFPSAGGSA [r2_488_TrROS_Hall] | 3.94 ± 0.11 | 5.77 ± 0.085 | 5.78 ± 0.19
SAGGSEGMTVTELVKPPDSDEVLYVATDSAGNTFTLPGSLVKEALENGKTVEAPRPDGTAATLVLRSAGGSA [r2_301_JUSTAS] | 2.25 ± 0.4 | 3.5 ± 0.2 | 3.1 ± 0.34
SAGGSEILKKLFPNVKKIEIEVEEVEVKYSEEEKKANPNKKVKVEVKVKVKIKIKIELEFDKNGKLSAGGSA [r2_404_TrROS_Hall] | 3.64 ± 0.19 | 1.92 ± 0.19 | 3.09 ± 0.61
SAGGSEIRVEYDPSTGELRVLIVLPDGSVILKTVRVEPIDPGIAPDGSPIGAAVSISVEIVPPGELSAGGSA [r2_195_TrMRF] | 3.23 ± 0.1 | 3.5 ± 0.037 | 3.39 ± 0.087
SAGGSEKKVLVLKFRHPENDKPLFSVRIVLEKPPEDSYKAKIELLDLPEDYVLSPEAIKAILEALKSAGGSA [r2_7_TrMRF] | 2.05 ± 0.036 | 2.58 ± 0.11 | 2.3 ± 0.11
SAGGSELENMSLEELLARAEELARELAEETGRTVTVTVEVRVRLPDGSTRTFRFTVTLTVLREEDLSAGGSA [r2_157_TrROS_Hall] | 3.93 ± 0.12 | 4.739 ± 0.04 | 4.519 ± 0.041
SAGGSETVRVEVEVELENGYRVRVEMEFDLETKEMTMRVEVEPVLELSPEELEKLKKLLEELGIEVSAGGSA [r2_304_TrROS_Hall] | 2.91 ± 0.27 | 3.43 ± 0.11 | 3.12 ± 0.17
SAGGSEVKIVKIESVEIEEENGFLRIKVRATLKFYDKETGELVEEKEVELEVTLKNGKKLTFKIKASAGGSA [r2_271_TrROS_Hall] | 3 ± 0.23 | 3.12 ± 0.086 | 3.12 ± 0.58
SAGGSFGIEIEFHGNGFVIEMFNPETDTINTMRFKFDPDGQFTEMEMETIPIPPPPPPEKDENGKESAGGSA [r2_375_TrROS] | 2.27 ± 0.16 | 3.16 ± 0.12 | 2.94 ± 0.19
SAGGSFIKITTKLPNRKIEIPIPDAEIEVEGNTVTITFPPGNAEEVKKAVLEASDEVEITEVKIIDESAGGS [r8_490_JUSTAS] | -0.107 ± 0.04 | 0.871 ± 0.026 | 0.557 ± 0.087
SAGGSFLVPTSSMEEAEEIKNAVLAGEPVTVTPPDGVPVTVKAKSVEVDPETGKVRIIDPSGEKLALSAGGS [r16_254_JUSTAS] | 0.201 ± 0.14 | 0.414 ± 0.095 | 0.379 ± 0.1
SAGGSFWVFVIEISVKFEQYGDPDGNWKFEIEKVDVKITEIIPIPPEMMDKLREAKAEGMEPEEILSAGGSA [r2_327_TrROS] | 1.65 ± 0.15 | 3.49 ± 0.11 | 3.09 ± 0.39
SAGGSGDPNAAPVVVKVTIDITRPTADDSYVTSPVELTLLESEVDEFLAELEKEPDLELKVEVTLESAGGSA [r2_270_JUSTAS] | 0.829 ± 0.063 | 1.25 ± 0.026 | 1.07 ± 0.11
SAGGSGKKVKIKINIVVVFPPGDPDLAKEIAKWFARTIARELQAQGFEDIKDIEIRVHVIPPNQPGFSAGGS [r16_289_TrROS] | 3.11 ± 0.094 | 3.604 ± 0.035 | 3.44 ± 0.12
SAGGSGKVIEIPIELPEDKTITLRLDPETGKAVVEAEENVPLEKVIEAAKKIFEENGFELNGLDISSAGGSA [r2_497_TrMRF] | 0.788 ± 0.032 | 0.725 ± 0.092 | 0.782 ± 0.12
SAGGSGKVIGFSFEVETPEEAEGLFKENRPDLDVKILEVKPEEGYVRLVAVDPDGKPHVFVVPIVGSAGGSA [r2_201_TrMRF] | 0.743 ± 0.055 | 1.34 ± 0.1 | 1.11 ± 0.091
